US20240368668A1, “SUBSTRATES AND BIOMARKERS OF ADAMTS7” (The Broad Institute, Inc., priority 2021, published 2024)
Square brackets hold non-standard residues; d marks the D form. Ends that are not written are not given here. pGlu = O=C1CC[C@@H](C(=O)O)N1

Molecular target: T1, mouse ADAMTS7 (Mus musculus, UniProt Q68SA9)
T1 construct: Full-length mouse Adamts7 1-1857 (Uniprot Q68SA9, WT or E373Q catalytic mutant); expressed in transfected cells; host or cells: Human Coronary Artery Smooth Muscle Cells (HCA-SMC, Lonza), adenovirus 50 MOI
T1 sequence (Q68SA9 221-1657): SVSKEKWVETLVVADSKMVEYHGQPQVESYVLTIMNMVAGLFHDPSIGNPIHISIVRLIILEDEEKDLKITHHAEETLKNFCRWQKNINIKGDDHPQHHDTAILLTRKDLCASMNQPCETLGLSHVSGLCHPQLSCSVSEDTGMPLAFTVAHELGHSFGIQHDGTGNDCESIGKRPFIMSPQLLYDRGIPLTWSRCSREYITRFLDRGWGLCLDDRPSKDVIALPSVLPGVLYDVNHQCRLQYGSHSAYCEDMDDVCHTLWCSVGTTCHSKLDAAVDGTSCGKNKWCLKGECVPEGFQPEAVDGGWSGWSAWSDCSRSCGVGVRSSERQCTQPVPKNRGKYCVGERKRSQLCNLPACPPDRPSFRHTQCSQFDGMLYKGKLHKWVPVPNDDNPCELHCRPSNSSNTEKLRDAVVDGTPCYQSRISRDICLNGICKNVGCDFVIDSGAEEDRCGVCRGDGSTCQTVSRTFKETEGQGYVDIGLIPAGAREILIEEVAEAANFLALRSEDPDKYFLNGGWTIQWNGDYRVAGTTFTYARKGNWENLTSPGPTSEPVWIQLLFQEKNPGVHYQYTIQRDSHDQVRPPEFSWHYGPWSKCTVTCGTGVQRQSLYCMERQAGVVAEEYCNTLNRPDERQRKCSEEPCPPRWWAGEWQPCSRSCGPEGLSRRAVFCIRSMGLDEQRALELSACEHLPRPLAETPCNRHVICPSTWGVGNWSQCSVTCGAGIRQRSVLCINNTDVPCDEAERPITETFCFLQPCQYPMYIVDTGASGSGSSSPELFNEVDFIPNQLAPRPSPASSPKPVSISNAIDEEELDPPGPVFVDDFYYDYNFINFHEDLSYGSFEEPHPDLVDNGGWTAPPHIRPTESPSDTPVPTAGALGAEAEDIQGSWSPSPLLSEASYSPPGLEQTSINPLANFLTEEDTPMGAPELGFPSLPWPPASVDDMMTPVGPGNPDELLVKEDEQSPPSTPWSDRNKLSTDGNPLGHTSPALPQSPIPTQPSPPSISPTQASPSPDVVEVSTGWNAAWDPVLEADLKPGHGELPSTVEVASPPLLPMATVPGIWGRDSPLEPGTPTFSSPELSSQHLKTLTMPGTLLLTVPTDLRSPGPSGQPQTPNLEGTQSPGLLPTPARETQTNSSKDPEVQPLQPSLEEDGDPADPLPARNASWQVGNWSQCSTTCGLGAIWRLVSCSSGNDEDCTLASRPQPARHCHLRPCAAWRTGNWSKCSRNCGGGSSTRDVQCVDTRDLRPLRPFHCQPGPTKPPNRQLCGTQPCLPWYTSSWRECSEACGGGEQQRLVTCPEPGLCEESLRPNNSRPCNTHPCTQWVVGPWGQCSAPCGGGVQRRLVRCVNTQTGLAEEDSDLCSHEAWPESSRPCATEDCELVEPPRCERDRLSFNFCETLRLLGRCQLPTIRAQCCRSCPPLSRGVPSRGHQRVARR
Experiment: TMT10 TAILS N-terminomics, SMC1 experiment (Ad-mADAMTS7 WT vs EQ vs Luc, technical replicates, trypsin digest)
Type: cell-based
Details: TAILS neo-N-terminal peptide abundance; log fold change, Ad-mADAMTS7 WT over Luc
Description: ADAMTS7 Expression, Cell Culture and Preparation of the Secreted Proteins—Full-length mouse Adamts7 1-1857 (Uniprot Q68SA9, WT or E373Q catalytic mutant) with a carboxyl terminal 3xFLAG tag was used to generate custom adenoviruses as previously described. Adeno-CMV-Luciferase (Ad-Luc) from Vector Biolabs was used as a negative control. Human Coronary Artery Smooth Muscle Cells (HCA-SMC) were obtained from Lonza and expanded in Lonza SmGM-2 media in 15 cm tissue culture plates. Twenty-four hours before media collection, near confluent plates were transduced with 50 MOI adenovirus and switched to Lonza Basal SM media with volumes of 20 ml per 15 cm plate. Expression of the Flag tagged ADAMTS7 was confirmed from the media using western blot and detected using the anti-Flag M2-HRP antibody (Sigma, A8592). Collected media was processed by adding protease inhibitors (1 mM EDTA and 1 mM PMSF) and clarified by 500 g×5 min spin at 4 C to pellet cell debris. Cell media supernatants were then passed through a 0.22 um filter and kept chilled. Processed media was then concentrated 50-100× using 3 kDa Centricon Plus-70 filter unit, spun at 3,500 g×60 min at 4 C. Approximately 10% of the processed, concentrated media was set aside for total secretome proteolytic analysis. The remaining 90% of the processed, concentrated media was buffer exchanged into 50 mM HEPES pH 8.0, 150 mM NaCl (2×50 ml) using the 3 kDa Centricon Plus-70 filter unit and concentrated to >2 mg/ml to serve as input for the TAILS experiment. Secretome and TAILS input samples were stored at −80° C.
For the first experiment, referred to as SMC1, 120 ml of media from 6×15 cm dishes was pooled from each condition (Luc, WT, EQ) and processed to produce three separate inputs for the TAILS experiment. Luc, WT and EQ inputs from the SMC1 experiment were each divided into triplicate 400 ug samples to generate technical replicate TAILS data. For the second experiment, referred to as SMC2, media was processed separately in triplicate for each condition (Luc1, Luc2, Luc3, WT1, WT2, WT3, EQ1, EQ2, EQ3) using 60 ml of media from 3×15 cm dishes for each process replicate. Inputs from the SMC2 experiment used process replicates of 300 ug each to generate TAILS data. The third experiment used input from cultured Human umbilical vein endothelial cells (HUVEC) from Lifeline Cell Technology grown in VascuLife Media and transduced in Lifeline Basal EC (+bFGF2 10 ng/ml). The HUVEC experiment used the same strategy as the SMC2 experiment, with 40 ml of media from 2×15 cm dishes for each process replicate and used 200 ug each to generate TAILS data. Inputs for process replicate experiments were restricted to the lowest concentration from the 9 parallel samples for SMC2 or HUVEC.
TMT10 isotopic labeling and negative selection of non-labeled peptides-Sample preparation was performed based on the TAILS protocol from the Overall lab with some modifications. From a single experiment, nine parallel protein samples in 50 mM HEPES pH 8.0, 150 mM NaCl were separately denatured with guanidinium chloride (Sigma, G4505) to reach a final concentration of 2.5M guanidinium chloride and 250 mM HEPES and incubated at 65° C. for 15 min. Reduction was achieved through addition of tris(2-carboxylethyl) phosphine (TCEP) at a final concentration of […] and incubated at 65° C. for 45 min. Alkylation reaction was performed with addition of iodoacetamide (IAA, Sigma, A3221) to a final concentration of 10 mM IAA for 15 min at room temperature in the dark. Following denaturation, reduction and alkylation steps, ten percent of each of the nine parallel protein samples was removed and combined to serve as a pooled reference. Isobaric tags were added to free amine groups using the TMT10plex Isobaric Mass Tagging Kit (ThermoFisher, 90113) with TMT channels randomly assigned to the nine samples and TMT 131 assigned to the pooled reference. […]

Row | Substance | logFC.mWT.over.Lux
1 | ACTB_21 (FAGDDAPR; listed as Homo sapiens) | 1.09
2 | ACTB_105 (LTEAPLNPKANR; listed as Homo sapiens) | 1.88
3 | ADAM9_69 (VIQAEGKEHIIHLER; listed as Homo sapiens) | 1.45
4 | AEBP1_37 (FLEGFLSELEPEPR; listed as Homo sapiens) | 3.23
5 | APLP2_579 (ISETPVDVR; listed as Homo sapiens) | 2.27
6 | CCDC80_66 (LEEPNLQPLQR; listed as Homo sapiens) | 3.84
7 | ECM1_134 (FGDQSHPEPESWNAAQHCQQDR; listed as Homo sapiens) | 3.02
8 | EFEMP1_124 (AVAGPEMQTGR; listed as Homo sapiens) | 3.84
9 | EFEMP1_125 (VAGPEMQTGR; listed as Homo sapiens) | 1.92
10 | EFHD2_67 (QGIGEPQSPSR; listed as Homo sapiens) | 0.81
11 | EHBP1L1_298 (TAPTPAPR; listed as Homo sapiens) | 1.01
12 | FBLN2_259 (ALGPPAPVQAKAR; listed as Homo sapiens) | 1.29
13 | FBLN2_260 (LGPPAPVQAKAR; listed as Homo sapiens) | 3.46
14 | FBN1_29 (LEAGNVKETR; listed as Homo sapiens) | 4.70
15 | FBN1_53 (LKGPNVCGSR; listed as Homo sapiens) | 4.89
16 | FLNA_612 (SVEGPSQAKIECDDKGDGSCDVR; listed as Homo sapiens) | 1.87
17 | FLNA_695 (FTVDAKHGGKAPLR; listed as Homo sapiens) | 4.79
18 | FLNA_1285 (LTQTGGPHVKAR; listed as Homo sapiens) | 4.95
19 | FN1_36 (MVQPQSPVAVSQSKPGCYDNGKHYQINQQWER; listed as Homo sapiens) | 3.73
20 | FN1_40 (QSPVAVSQSKPGCYDNGKHYQINQQWER; listed as Homo sapiens) | 3.87
21 | FN1_45 (VSQSKPGCYDNGKHYQINQQWER; listed as Homo sapiens) | 3.70
22 | FN1_47 ([code q]SKPGCYD[code n]GKHYQINQQWER; not fully specified; listed as Homo sapiens) | 3.08
23 | FN1_281 (SGSGPFTDVR; listed as Homo sapiens) | 2.44
24 | FN1_282 (GSGPFTDVR; listed as Homo sapiens) | 3.74
25 | FN1_886 (NQESTPVVIQQETTGTPR; listed as Homo sapiens) | 1.70

Row | Substance | logFC.mWT.over.Lux
26 | FN1_1143 (LTPGVEYVYTIQVLR; listed as Homo sapiens) | 0.85
27 | FN1_1656 (SSSPVTGYR; listed as Homo sapiens) | 1.44
28 | FN1_1731 (FTDVDVDSIKIAWESPQGQVSR; listed as Homo sapiens) | 2.59
29 | FN1_2143 (FEEHGFR; listed as Homo sapiens) | 1.11
30 | FN1_2217 (FQDTSEYIISCHPVGTDEEPLQFR; listed as Homo sapiens) | 2.41
31 | GALNT2_31 (LAGGAGGGAGR; listed as Homo sapiens) | 0.76
32 | GSN_35 (SQAGAPQGR; listed as Homo sapiens) | 4.42
33 | GSN_413 (HIANVER; listed as Homo sapiens) | 1.99
34 | HEG1_49 (GAGLELQLER; listed as Homo sapiens) | 1.72
35 | HLA−C_52 (VDDTQFVR; listed as Homo sapiens) | 1.14
36 | HSPG2_275 (LLPGSVR; listed as Homo sapiens) | 2.87
37 | HSPG2_1937 (SSAGQQVAR; listed as Homo sapiens) | 0.79
38 | HSPG2_2331 (ANLAYPAGSTQPIR; listed as Homo sapiens) | 2.07
39 | HSPG2_2333 (LAYPAGSTQPIR; listed as Homo sapiens) | 1.93
40 | HSPG2_2688 (VADSGEYVCR; listed as Homo sapiens) | 3.16
41 | HSPG2_3250 (SPLPWQHR; listed as Homo sapiens) | 1.00
42 | HSPG2_3542 (IAHVELADAGQYR; listed as Homo sapiens) | 0.60
43 | HSPG2_3647 ([pGlu]GKVKAFAHLQVPER; listed as Homo sapiens) | 0.96
44 | HSPG2_3672 (SFLPLPTIKDAYR; listed as Homo sapiens) | 1.09
45 | HSPG2_3813 (SSGFIGCVR; listed as Homo sapiens) | 0.81
46 | HSPG2_4004 (SAEPLALGR; listed as Homo sapiens) | 0.88
47 | HSPG2_4021 (LNKDGSLR; listed as Homo sapiens) | 0.70
48 | HSPG2_4075 (GCVGEVSVNGKR; listed as Homo sapiens) | 0.77
49 | HSPG2_4133 (DGFKGDLCEHEENPCQLR; listed as Homo sapiens) | 0.63
